From the DeepSol protein solubility set

Assay: soluble on expression in E. coli; label from the status in PepcDB or PDB records

Sequence | soluble on expression in E. coli
MAHHHHHHMSKKERYKIWKRIPKCELHCHLDLCFSADFFVSCIRKYNLQPNLSDEEVLDYYLFAKGGKSLGEFVEKAIKVADIFHDYEVIEDLAKHAVFNKYKEGVVLMEFRYSPTFVAFKYNLDIELIHQAIVKGIKEVVELLDHKIHVALMCIGDTGHEAANIKASADFCLKHKADFVGFDHGGHEVDLKEYKEIFDYVRESGVPLSVHAGEDVTLPNLNTLYSAIQVLKVERIGHGIRVAESQELIDMVKEKNILLEVCPISNVLLKNAKSMDTHPIRQLYDAGVKVSVNSDDPGMFLTNINDDYEELYTHLNFTLEDFMKMNEWALEKSFMDSNIKDKIKNLYF | not soluble
MACFLARFQFISPDSPATKAVTLQIKRSGQDMYACITGHSYSAPVFTVECKLKPDAEWVRDCMASFKEQMEAEGFLLNEGTSESTLPAQPAKKADLTLHDISAFFHLPVKAAASCLGVSQTYLKILCRRLGIDRWPYRKVASVKKHM | not soluble
MVHYYRLSLKSRQKAPKIVNSKYNSILNIALKNFRLCKKHKTKKPVQILALLQEIIPKSYFGTTTNLKRFYKVVEKILTQSSFECIHLSVLHKCYDYDAIPWLQNVEPNLRPKLLLKHNLFLLDNIVKPIIAFYYKPIKTLNGHEIKFIRKEEYISFESKVFHKLKKMKYLVEVQDEVKPRGVLNIIPKQDNFRAIVSIFPDSARKPFFKLLTSKIYKVLEEKYKTSGSLYTCWSEFTQKTQGQIYGIKVDIRDAYGNVKIPVLCKLIQSIPTHLLDSEKKNFIVDHISNQFVAFRRKIYKWNHGLLQGDPLSGCLCELYMAFMDRLYFSNLDKDAFIHRTVDDYFFCSPHPHKVYDFELLIKGVYQVNPTKTRTNLPTHRHPQDEIPYCGKIFNLTTRQVRTLYKLPPNYEIRHKFKLWNFNNQISDDNPARFLQKAMDFPFICNSFTKFEFNTVFNDQRTVFANFYDAMICVAYKFDAAMMALRTSFLVNDFGFIWLVLSSTVRAYASRAFKKIVTYKGGKYRKVTFQCLKSIAWRAFLAVLKRRTEIYKGLIDRIKSREKLTMKFHDGEVDASYFCKLPEKFRFVKINRKASI | soluble
MGHHHHHHSHNCHWTYLKQNRKMAANSSGQGFQNKNRVAILAELDKEKRKLLMQNQSSTNHPGARY | not soluble
MGSDKIHHHHHHMSDSTTPETIIVIGASSLMAQAFIAKTFTQQAYTDQTVIQQASSQQSKRHDTSPLQIITVSRQNKLILHDLTDNISHHHFSCDYQQASIEQCVTNIAAIAGKVTRIVMCNGILHSKNPQSADSILGPHSANDSTLMPEKRIEDIDALSLEQLFYANSIVPMLWLSALTSLLSLPRHKVAGEQKCVISILSARVGSISDNRLGGWYGYRASKAALNMLIKTTAVEYARRLKRVKLIAFHPGTTDTPLSKPFQANVPAGKLFTPEFVASQLYNIMADIEPNGEASYLDWQGKEISW | not soluble
MAKNDFKFISYKDKVKKELDATAERGMTKVLMIIKAAAKSGAPVETGQLRDRIDYQLKAVGGKVVGIVGSPEQYAIYVEFGTGEFAENGSGRKGGWFFEGPDGEWHFTRGQKPQKFLRNAFRQNKEKVIEILGKEYGATFKGG | not soluble
MSSRLDQLVNKYNKSCENVSFAEHMILKDKYESLVIEHESLIKTLELLEKTHGFTVEDLVTKQKEALEKKEVIEKWENKFGEMEKKLKTVERSIEYIMSVDVQTGVDSGSANRPNVKNSYQRGIF | not soluble
MGSDKIHHHHHHKDEIKHLVSEWQGKEIRFPKDMVFARFATDTVDFTLPKSPHKVLVFVDSIGCTSCKLQLHRWKELIQYTDSITQGTVPFLFFFQSDDKKEIRYLLKKDNFDKPICMDQSDRLNELNHFPADGRFQTFLLDKDNKVVVIGNPIHNPNIRELYLKEITGKQPASQIQTTVKVEEASIQLGTIQMGESKEAVFRLTNTGNNPLVILDAATTCGCARPSFDKHPAKPGEILQVRVIMTPKDKGVFDETISVKCNTNQLIKLNIRGMAQ | not soluble
